Legend:
[1] = target: T1, human PAC1 receptor (human, UniProt P41586 21-468); test: cell-based or functional assay
T1 sequence: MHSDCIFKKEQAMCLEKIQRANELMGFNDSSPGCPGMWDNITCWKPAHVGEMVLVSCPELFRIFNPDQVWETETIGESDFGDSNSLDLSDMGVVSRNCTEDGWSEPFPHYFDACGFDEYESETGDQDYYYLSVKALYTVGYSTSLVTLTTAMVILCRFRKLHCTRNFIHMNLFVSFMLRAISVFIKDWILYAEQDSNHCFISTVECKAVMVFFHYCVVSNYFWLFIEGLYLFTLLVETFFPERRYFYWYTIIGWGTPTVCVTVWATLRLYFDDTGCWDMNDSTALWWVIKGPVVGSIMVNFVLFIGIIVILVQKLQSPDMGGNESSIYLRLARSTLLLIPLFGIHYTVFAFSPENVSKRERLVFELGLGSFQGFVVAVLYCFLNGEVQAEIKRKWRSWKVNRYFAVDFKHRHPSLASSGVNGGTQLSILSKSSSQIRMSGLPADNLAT

[2] = target: human CGRP receptor (human, UniProt Q16602 23-461; O60894 27-148); test: cell-based or functional assay
Chain of human CGRP receptor (Q16602 23-461 limits assumed, chain 1 of 2): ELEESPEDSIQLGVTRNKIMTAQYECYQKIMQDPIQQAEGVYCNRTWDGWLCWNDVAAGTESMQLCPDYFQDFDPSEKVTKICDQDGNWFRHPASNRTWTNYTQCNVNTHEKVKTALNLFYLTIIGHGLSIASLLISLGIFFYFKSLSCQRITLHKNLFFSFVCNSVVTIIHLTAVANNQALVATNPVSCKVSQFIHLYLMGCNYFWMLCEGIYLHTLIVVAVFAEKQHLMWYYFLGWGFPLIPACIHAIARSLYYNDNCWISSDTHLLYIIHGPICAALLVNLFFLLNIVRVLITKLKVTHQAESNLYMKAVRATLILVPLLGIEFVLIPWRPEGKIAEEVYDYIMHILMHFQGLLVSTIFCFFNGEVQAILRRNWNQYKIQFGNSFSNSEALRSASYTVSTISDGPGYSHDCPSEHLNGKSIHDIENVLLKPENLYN
Chain of human CGRP receptor (O60894 27-148 limits assumed, chain 2 of 2): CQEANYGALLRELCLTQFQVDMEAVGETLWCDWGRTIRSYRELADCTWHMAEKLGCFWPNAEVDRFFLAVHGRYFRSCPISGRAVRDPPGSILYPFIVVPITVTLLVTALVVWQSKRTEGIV

Row | Binder | % inhibition of human PAC1 [1] | % inhibition of human CGRPR [2]
1 | iPS:327730 (bispecific antibody, human IgG1, kappa, lambda, N297G) light 1: EIVLTQSPATLSLSPGERATLSCRASQSVGRSLHWYQQKPGQAPRLLIKYASQSLSGIPARFSGSGSGTDFTLTISSLEPEDFAVYYCHQSSRLPFTFGPGTKVDIKRTVAAPSVFIFPPSDEQLKSGTASVVCLLNNFYPREAKVQWKVDNALQSGNSQESVTEQDSKDSTYSLESTLTLSKADYEKHKVYACEVTHQGLSSPVTKSFNRGEC heavy 1: not shown light 2: QSVLTQPPSVSAAPGQKVTISCSGSSSNIGNNYVSWYQQLPGTAPKLLIYDNNKRPSGIPDRFSGSKSGTSATLAITGLQTGDEADYYCGTWDSRLSAVVFGGGTKLTVLGQPKANPTVTLFPPSSEELQANKATLVCLISDFYPGAVTVAWKADGSPVKAGVETTKPSKQSNNKYAAKSYLSLTPEQWKSHRSYSCQVTHEGSTVEKTVAPTECS heavy 2: QVQLVESGGGVVQPGRSLRLSCAASGFTFSSFGMHWVRQAPGKGLEWVAVISFDGSIKYSVDSVKGRFTISRDNSKNTLFLQMNSLRAEDTAVYYCARDRLNYYDSSGYYHYKYYGMAVWGQGTTVTVSSASTKGPSVFPLAPSSKSTSGGTAALGCLVKDYFPEPVTVSWNSGALTSGVHTFPAVLQSSGLYSLESVVTVPSSSLGTQTYICNVNHKPSNTKVDKKVEPKSCDKTHTCPPCPAPELLGGPSVFLFPPKPKDTLMISRTPEVTCVVVDVSHEDPEVKFNWYVDGVEVHNAKTKPCEEQYGSTYRCVSVLTVLHQDWLNGKEYKCKVSNKALPAPIEKTISKAKGQPREPQVYTLPPSRKKMTKNQVSLTCLVKGFYPSDIAVEWESNGQPENNYKTTPPVLKSDGSFFLYSKLTVDKSRWQQGNVFSCSVMHEALHNHYTQKSLSLSPGK | 101% | 87%
2 | iPS:327870 (bispecific antibody, human IgG2, kappa, lambda) light 1: not shown heavy 1: QVQLQQSGPGLVKPSQTLSLTCAISGDSVSSNSATWNWIRQSPSRGLEWLGRTYYRSKWSNHYAVSVKSRITINPDTSKSQFSLQLNSVTPEDTAVYYCARGTWKQLWFLDHWGQGTLVTVSSASTKGPSVFPLAPCSRSTSESTAALGCLVKDYFPEPVTVSWNSGALTSGVHTFPAVLQSSGLYSLKSVVTVPSSNFGTQTYTCNVDHKPSNTKVDKTVERKCCVECPPCPAPPVAGPSVFLFPPKPKDTLMISRTPEVTCVVVDVSHEDPEVQFNWYVDGVEVHNAKTKPREEQFNSTFRVVSVLTVVHQDWLNGKEYKCKVSNKGLPAPIEKTISKTKGQPREPQVYTLPPSREEMTKNQVSLTCLVDGFYPSDIAVEWESNGQPENNYDTTPPMLDSDGSFFLYSDLTVDKSRWQQGNVFSCSVMHEALHNHYTQKSLSLSPGK light 2: QSVLTQPPSVSAAPGQKVTISCSGSSSNIGNNYVSWYQQLPGTAPKLLIYDNNKRPSGIPDRFSGSKSGTSTTLGITGLQTGDEADYYCGTWDSRLSAVVFGGGTKLTVLGQPKANPTVTLFPPSSEELQANKATLVCLISDFYPGAVTVAWKADGSPVKAGVETTKPSKQSNNKYAAKSYLSLTPEQWKSHRSYSCQVTHEGSTVEKTVAPTECS heavy 2: QVQLVESGGGVVQPGRSLRLSCAASGFTFSSFGMHWVRQAPGKGLEWVAVISFDGSIKYSVDSVKGRFTISRDNSKNTLFLQMNSLRAEDTAVYYCARDRLNYYDSSGYYHYKYYGMAVWGQGTTVTVSSASTKGPSVFPLAPCSRSTSESTAALGCLVKDYFPEPVTVSWNSGALTSGVHTFPAVLQSSGLYSLESVVTVPSSNFGTQTYTCNVDHKPSNTKVDKTVERKCCVECPPCPAPPVAGPSVFLFPPKPKDTLMISRTPEVTCVVVDVSHEDPEVQFNWYVDGVEVHNAKTKPREEQFNSTFRVVSVLTVVHQDWLNGKEYKCKVSNKGLPAPIEKTISKTKGQPREPQVYTLPPSRKKMTKNQVSLTCLVKGFYPSDIAVEWESNGQPENNYKTTPPMLKSDGSFFLYSKLTVDKSRWQQGNVFSCSVMHEALHNHYTQKSLSLSPGK | 86% | 67%
3 | iPS:327731 (bispecific antibody, human IgG1, kappa, lambda, N297G) light 1: not shown heavy 1: not shown light 2: QSVLTQPPSVSAAPGQKVTISCSGSSSNIGNNYVSWYQQLPGTAPKLLIYDNNKRPSGIPDRFSGSKSGTSATLGITGLQTGDEADYYCGTWDSRLSAVVFGGGTKLTVLGQPKANPTVTLFPPSSEELQANKATLVCLISDFYPGAVTVAWKADGSPVKAGVETTKPSKQSNNKYAAKSYLSLTPEQWKSHRSYSCQVTHEGSTVEKTVAPTECS heavy 2: QVQLVESGGGVVQPGRSLRLSCAASGFTFSSFGMHWVRQAPGKGLEWVAVISFDGSIKYSVDSVKGRFTISRDNSKNTLFLQMNSLRAEDTAVYYCARDRLNYYESSGYYHYKYYGMAVWGQGTTVTVSSASTKGPSVFPLAPSSKSTSGGTAALGCLVKDYFPEPVTVSWNSGALTSGVHTFPAVLQSSGLYSLESVVTVPSSSLGTQTYICNVNHKPSNTKVDKKVEPKSCDKTHTCPPCPAPELLGGPSVFLFPPKPKDTLMISRTPEVTCVVVDVSHEDPEVKFNWYVDGVEVHNAKTKPCEEQYGSTYRCVSVLTVLHQDWLNGKEYKCKVSNKALPAPIEKTISKAKGQPREPQVYTLPPSRKEMTKNQVSLTCLVKGFYPSDIAVEWESNGQPENNYKTTPPVLKSDGSFFLYSKLTVDKSRWQQGNVFSCSVMHEALHNHYTQKSLSLSPGK | 74% | 74%
4 | iPS:327719 (bispecific antibody, human IgG1, kappa, lambda, N297G) light 1: DIQLTQSPSFLSASVGDRVTITCRASQSIGRSLHWYQQKPGKAPKLLIKYASQSLSGVPSRFSGSGSGTEFTLTISSLQPEDFATYYCHQSSRLPFTFGPGTKVDIKRTVAAPSVFIFPPSDEQLKSGTASVVCLLNNFYPREAKVQWKVDNALQSGNSQESVTEQDSKDSTYSLESTLTLSKADYEKHKVYACEVTHQGLSSPVTKSFNRGEC heavy 1: not shown light 2: QSVLTQPPSVSAAPGQKVTISCSGSSSNIGNNYVSWYQQLPGTAPKLLIYDNNKRPSGIPDRFSGSKSGTSATLAITGLQTGDEADYYCGTWDSRLSAVVFGGGTKLTVLGQPKANPTVTLFPPSSEELQANKATLVCLISDFYPGAVTVAWKADGSPVKAGVETTKPSKQSNNKYAAKSYLSLTPEQWKSHRSYSCQVTHEGSTVEKTVAPTECS heavy 2: QVQLVESGGGVVQPGRSLRLSCAASGFTFSSFGMHWVRQAPGKGLEWVAVISFDGSIKYSVDSVKGRFTISRDNSKNTLFLQMNSLRAEDTAVYYCARDRLNYYDSSGYYHYKYYGMAVWGQGTTVTVSSASTKGPSVFPLAPSSKSTSGGTAALGCLVKDYFPEPVTVSWNSGALTSGVHTFPAVLQSSGLYSLESVVTVPSSSLGTQTYICNVNHKPSNTKVDKKVEPKSCDKTHTCPPCPAPELLGGPSVFLFPPKPKDTLMISRTPEVTCVVVDVSHEDPEVKFNWYVDGVEVHNAKTKPCEEQYGSTYRCVSVLTVLHQDWLNGKEYKCKVSNKALPAPIEKTISKAKGQPREPQVYTLPPSRKEMTKNQVSLTCLVKGFYPSDIAVEWESNGQPENNYKTTPPVLKSDGSFFLYSKLTVDKSRWQQGNVFSCSVMHEALHNHYTQKSLSLSPGK | 59% | 85%

Source: US20170306033A1 (Amgen, published 2017)
